Assay results: publication PMC3512577 (Nature structural & molecular biology, 2011)
Values belong to the molecule of their own block, whether it stands above or below them.

Tests used:
[1] = target: recombinant C3d D122A (D1115A) (human) (UniProt P01024); assay: SPR
[2] = target: recombinant C3d E117A (E1110A), with C17A (C1011A) (human, UniProt P01024 996-1306, E117A (E1110A)); assay: SPR
[3] = target: recombinant C3d E117A/D122A (E1110A/D1115A), with C17A (C1011A) (human, UniProt P01024 996-1306, E117A (E1110A) | D122A (D1115A)); assay: SPR
[4] = target: recombinant C3d D122A (D1115A), with C17A (C1011A) (human, UniProt P01024 996-1306, D122A (D1115A)); assay: SPR
plasma-derived C3d = plasma-derived C3d (UniProt P01024 996-1303); assay: NMR titration

Kd [1]: 46 µM
Molecule: FH19–20 L1189F (from UniProt P08603 1108-1231) (domain or fragment)

Kd [1]: 46 µM
Molecule: complement factor H CCP19–20, wild type (FH19–20) (from UniProt P08603 1108-1231) (domain or fragment)

fold decrease in binding against C3d E160A and I164A [2]: 2 fold | fold decrease in binding against wild-type C3d [2]: 4 fold | Kd [3]: ~30000 µM | fold decrease in affinity against wild-type C3d [3]: ~1600 fold | fold decrease in binding against C3d E160A and I164A [4]: 3 fold | fold decrease in binding against wild-type C3d [4]: 6 fold | binding result (plasma-derived C3d): binds
B1: FH19–20 (wild-type recombinant fragment of human complement factor H, CCP modules 19 and 20) (domain or fragment, UniProt P08603 1108-1231, looked up)
chain: KCGPPPPIDNGDITSFPLSVYAPASSVEYQCQNLYQLEGNKRITCRNGQWSEPPKCLHPCVISREIMENYNIALRWTAKQKLYSRTGESVEFVCKRGYRLSSRSHTLRTTCWDGKLEYPTCAKR
modifications: 15N-labelled (NMR experiments only)
